Results as given in article PMC11323494, “A network of acetyl phosphate-dependent modification modulates c-di-AMP homeostasis in Actinobacteria” (mBio, 2024).

Legend:
[1] = target: DNA integrity scanning protein (DisA), nonacetylated (Saccharopolyspora erythraea) (UniProt A4F6V9); experiment: cross-linking; purified protein in 20 mM bicine pH 8.0, 150 mM NaCl, 10 mM MgCl2, 0.2% n-octyl-beta-D-glucopyranoside, 8% glycerol; 1 mM disuccinimidyl suberate, room temperature, 1 h; 15% SDS-PAGE, Coomassie blue; bands quantified by densitometry; self-association (DisA monomer and octamer, DasR monomer and dimer)
[2] = target: DasR, nonacetylated (GntR-family global regulator) (Saccharopolyspora erythraea); experiment: as above
[3] = target: T1, DisA (Saccharopolyspora erythraea, UniProt A4F6V9); experiment: DAC activity by HPLC after […] h preincubation; acetylation by anti-AcK blot and LC-MS/MS; assay type: biochemical; settings: covalent; lysine acetylation (K66, K284); 10 mM AcP, 5 h, 37 C, 50 mM HEPES pH 7.5; substrate ATP
T1 construct: recombinant His-tagged, pET28a(+), E. coli BL21(DE3); octamer
T1 sequence (A4F6V9 1-370): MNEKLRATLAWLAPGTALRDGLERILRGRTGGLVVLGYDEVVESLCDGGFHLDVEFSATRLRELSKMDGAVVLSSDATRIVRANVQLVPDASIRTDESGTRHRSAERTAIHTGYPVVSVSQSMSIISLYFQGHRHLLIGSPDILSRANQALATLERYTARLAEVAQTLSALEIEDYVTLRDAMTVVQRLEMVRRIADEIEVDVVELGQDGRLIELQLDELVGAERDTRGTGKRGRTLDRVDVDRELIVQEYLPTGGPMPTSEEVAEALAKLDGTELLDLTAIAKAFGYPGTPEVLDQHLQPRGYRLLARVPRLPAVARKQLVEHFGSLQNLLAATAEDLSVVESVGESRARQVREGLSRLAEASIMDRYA

[4] = target: T2, DasR (Saccharopolyspora erythraea, UniProt A4F723); experiment: in vitro acetylation, anti-AcK Western blot; assay type: binding; settings: covalent; lysine acetylation; 10 mM AcP, 0-5 h, 37 C, 50 mM HEPES pH 7.5
T2 construct: gene SACE_0500; recombinant His-tagged, pET28a(+), E. coli BL21(DE3); dimer
T2 sequence (A4F723 1-251): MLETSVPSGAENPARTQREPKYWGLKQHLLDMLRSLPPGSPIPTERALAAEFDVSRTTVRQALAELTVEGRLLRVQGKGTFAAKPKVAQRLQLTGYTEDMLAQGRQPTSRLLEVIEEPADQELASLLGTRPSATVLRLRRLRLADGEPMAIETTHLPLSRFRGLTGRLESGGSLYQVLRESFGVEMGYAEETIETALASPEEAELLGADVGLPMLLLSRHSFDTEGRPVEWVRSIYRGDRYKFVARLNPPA

[5] = target: DasR^K78R; experiment: cross-linking, gel band densitometry (ImageJ); settings: parent: 100
[6] = target: DasR K78Q variant; experiment: cross-linking, gel band densitometry (ImageJ); settings: parent: 100
[7] = test system: DasR WT (Saccharopolyspora erythraea NRRL2338); experiment: BLI; settings: BLI: 10 mM HEPES pH 8.0, 2 mM MgCl2, 0.1 mM EDTA, 200 mM KCl (running buffer + 10 µg/mL BSA, 0.02% Tween-20), SA sensor, temperature not stated; EMSA: 5 nM …
[8] = target: T1, DisA; experiment: HPLC of c-di-AMP formed (DAC assay); assay type: biochemical; settings: 100 mM ATP, 10 mM MgCl2, 0.1 M NaCl, 40 mM Tris pH 7.5, 10 uM enzyme

Compound: DNA integrity scanning protein (DisA), nonacetylated (from UniProt A4F6V9 1-370) (enzyme)
- stoichiometry N [1]: 8

Compound: DasR, nonacetylated (GntR-family global regulator) (natural protein)
- stoichiometry N [2]: 2

Compound: CC(=O)OP(=O)(O)O [acetyl phosphate]
- DAC activity reduction (%) [3]: ~ 75%
- in vitro acetylation, anti-AcK Western blot [4]: In vitro acetylation further confirmed that DasR was acetylated by AcP

Compound: DasR, nonacetylated (GntR-family global regulator) K78R
- other: relative monomer level (relative monomer level (WT = 100)) [5]: 140
- percent of parent (relative dimer level (WT = 100)) [5]: 89

Compound: DasR, nonacetylated (GntR-family global regulator) K78Q
- other: relative monomer level (relative monomer level (WT = 100)) [6]: 230
- percent of parent (relative dimer level (WT = 100)) [6]: 42

Compound: disA promoter probe
- Kd [7]: 400 nM

Compound: Nc1ncnc2c1ncn2[C@@H]1O[C@H](COP(=O)(O)OP(=O)(O)OP(=O)(O)O)[C@@H](O)[C@H]1O [ATP]
- HPLC of c-di-AMP formed (DAC assay) [8]: started by the addition of 100-mM ATP
